Experimental data taken from patent publication US20170015742A1 (published 2017).
Positions count from the first letter of the chain named. “And” between values parts separate entries of the source, which are not always exact repeats. Identical values can stand only once. Each block holds one binder with its values, some of them ahead of it.

What was measured:
Human VEGF-A 165 = molecular target: T1, Human VEGF-A 165 (human, UniProt P15692 207-395); assay: Biacore SPR (Example 1.1)
T1 construct: also called hVEGF165; huVEGF-A165
T1 sequence (P15692 other isoform, or with tags, fused parts or gaps limits assumed): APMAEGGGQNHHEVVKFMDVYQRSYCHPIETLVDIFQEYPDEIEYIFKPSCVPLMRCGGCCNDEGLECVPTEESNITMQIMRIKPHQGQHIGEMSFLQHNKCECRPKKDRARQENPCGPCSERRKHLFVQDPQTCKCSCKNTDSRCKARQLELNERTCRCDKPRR
Method: Unreacted moieties on the biosensor surface were blocked with ethanolamine. For kinetic analysis, rate equations derived from the 1:1 Langmuir binding model were fitted simultaneously to multiple antigen injections (using global fit analysis) with the use of Scrubber 2 (BioLogic Software), Biacore Biaevaluation 4.0.1 software or Biacore T100 Evaluation software. Purified antibodies or DVD-Ig molecules were diluted in running buffer for capture across goat anti-human Fc reaction surfaces. Antibodies or DVD-Ig molecules to be captured as a ligand (1 μg/ml) were injected over reaction matrices at a flow rate of 10 μl/minute. During the assay, all measurements were referenced against the capture surface alone (i.e., with no captured antibody or DVD-Ig molecule). […] The equilibrium dissociation constant KD (M) of the reaction between antibodies and the target antigen was then calculated from the kinetic rate constants by the following formula: KD=Koff/Kₒₙ. Binding was recorded as a function of time and kinetic rate constants were calculated. In this assay, on-rates as fast as 10⁶M⁻¹s⁻¹ and off-rates as slow as 10⁻⁶ s⁻¹ could be measured. […]

[1] = molecular target: recombinant human PDGF-BB (human, UniProt P01127 82-190); assay: cell-based or functional assay
recombinant human PDGF-BB, sequence (P01127 82-190 limits assumed): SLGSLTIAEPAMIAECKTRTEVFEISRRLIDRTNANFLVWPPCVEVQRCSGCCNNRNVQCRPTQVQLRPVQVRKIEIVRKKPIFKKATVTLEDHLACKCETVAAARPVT

Kd (Human VEGF-A 165): ≤ 0.00081 nM and 0.0012 nM | kon (Human VEGF-A 165): ≥ 1e+07 M⁻¹ s⁻¹ and 1.4e+07 M⁻¹ s⁻¹
B1: BDB-4G8-D4 (antibody, IgG2b, V domains shown)
VH: QIQLVQSGPELKKPGESVKISCKASGYTFTNYGMYWVKQAPGQGLQYMGWINTETGKPTYADDFKGRFVFFLETSASTAYLQINNLKNEDMATYFCARTNYYYRSYIFYFDYWGQGTMVTVSS
VL: DTVLTQSPALAVSPGERVSISCRASESVSTHMHWYQQKPGQQPKLLIYGASNLESGVPARFSGSGSGTDFTLTIDPVEADDTATYFCQQSWNDPFTFGAVTKLELK

Kd (Human VEGF-A 165): 0.06 nM | kon (Human VEGF-A 165): 1.8e+07 M⁻¹ s⁻¹
B2: BED-4G10-C8 (antibody, IgG2b, V domains shown)
VH: QVQLQQSGTELVKPGSSVKISCKASGYTFTSNYMHWIRQQPGNGLEWIGWIYPGDGDTNYNHNFNGKATLTADKSSSTAYMQLSSLTSEDFAVYFCASSTRAIPGWFTYWGQGTLVTVSS
VL: B1 VL with R23W, H31L, P39L, S62R, N92S, F95Y, V100G

Kd (Human VEGF-A 165): 0.016 nM | kon (Human VEGF-A 165): 4.4e+06 M⁻¹ s⁻¹
B3: BEW-1B10-B9-C3 (antibody, IgG2a, V domains shown)
VH: EVQLVESGGGLVQPGRSLKLSCAASGFSFSKYDMAWFRQTPTKGLEWVASITTSGVGTYYRDSVKGRFTVSRDNAKSTLYLQMDSLRSEDTATYYCARGYGAMDAWGQGTSVTVSS
VL: DIQMTQSPASLSASLEEIVTITCKASQDIDDYLSWYQQKPGKSPQLVIYAATRLADGVPSRFSGSGSGTQYSLKISRLQVDDSGIYYCLQSSSTPWTFGGGTNLELK

hPDGF-BB IC50 (nM), hPDGF-BB-induced NIH-3T3 cell proliferation [1]: 0.183 nM
B4: hBFU-3E2.1 (antibody, V domains shown)
VH: EVQLVQSGAEVKKPGSSVKVSCKASGYTFTESYMYWVKQAPGQGLELIGRIDPEDGSTDYVEKFKNKATLTADKSTSTAYMELSSLRSEDTAVYFCARFGARSYFYPMDAWGQGTTVTVSS
VL: ETVLTQSPATLSLSPGERATLSCRASESVSTLMHWYQQKPGQQPRLLIYGASNLESGVPARFSGSGSGTDFTLTISSLEPEDFAVYFCQQSWNDPWTFGGGTKVEIK

hPDGF-BB IC50 (nM), hPDGF-BB-induced NIH-3T3 cell proliferation [1]: 0.659 nM
B5: hBFU-3E2.2 (antibody, V domains shown)
VH: B4 VH with K38R, K67R, A68V, F95Y
VL: B4 VL

hPDGF-BB IC50 (nM), hPDGF-BB-induced NIH-3T3 cell proliferation [1]: 0.335 nM
B6: hBFU-3E2.3 (antibody, V domains shown)
VH: B4 VH
VL: ATQLTQSPSSLSASVGDRVTISCRASESVSTLMHWYQQKPGKQPRLLIYGASNLESGVPSRFSGSGSGTDFTLTISSLQPEDFATYFCQQSWNDPWTFGGGTKVEIK

hPDGF-BB IC50 (nM), hPDGF-BB-induced NIH-3T3 cell proliferation [1]: 0.571 nM
B7: hBFU-3E2.4 (antibody, V domains shown)
VH: B4 VH with K38R, K67R, A68V, F95Y
VL: B6 VL

Kd (Human VEGF-A 165): 0.0074 nM | kon (Human VEGF-A 165): 1.8e+07 M⁻¹ s⁻¹
B8: BEW-1B4-C4 (antibody, IgG2b, V domains shown)
VH: QIQLVQSGPELKKPGESVKISCKASGYSFTNYGMYWVKQAPGQGLQYMGWIDTETGKPTYTDDFKGRFVFFLETSASTAYLQINNLKNEDMATYFCARWSGDTAGIRGPWFAYWGQGTLVTVSS
VL: DIRMTQSPASLSASLGETVNIECLASEDIYSDLAWYQQKPGKSPQLLIYNANDLQKGVPSRFSGSGSGTQYSLKINSLQSEDVATYFCQQYNYYPGTFGAGTKLELK
notes: Rat hybridoma monoclonal antibody

Kd (Human VEGF-A 165): 0.0031 nM | kon (Human VEGF-A 165): 1.3e+07 M⁻¹ s⁻¹
B9: BEW-9E10-E7 (antibody, IgG2a, V domains shown)
VH: B8 VH with V5L, S28T, K57R, T61A, A104T
VL: B8 VL with K42R, D53G, K56N, S63G, Y94F

Kd (Human VEGF-A 165): 0.0039 nM | kon (Human VEGF-A 165): 1.2e+07 M⁻¹ s⁻¹
B10: BEW-5C3-E7 (antibody, IgG2b, V domains shown)
VH: QIQLVQSGPELKKPGESVKISCKASGYTFTNYGVYWVKQAPGQGLQYMGWINTETGKPTYADDFKGRFVFFLETSTNTAYLQINNLKNEDMATFFCARARQLDWFVYWGQGTLVTVSS
VL: DTVLTQSPALTVSPGERVSISCRARESLTTSLCWFQQKPGQQPKLLIYGASKLESGVPARFSGSGSGTDFTLTIDPVEADDTATYFCQQSWYDPPTFGGGTKLELK

Kd (Human VEGF-A 165): ≤ 0.00018 nM | kon (Human VEGF-A 165): 5.5e+06 M⁻¹ s⁻¹
B11: BEW-9C2-D6 (antibody, IgG2b, V domains shown)
VH: QIQLVQSGPELKKPGESVKVSCKASGYTFTNYGIHWVKQAPGQGLQYVGWINTETGRPTYADDFKGRFVFFLETSASTAYLQINNLKNEDMATYFCARPLYYGYAHYFDYWGQGVMVTVSS
VL: DIQMTQSPASLSASLEEIVTITCQASQDIGNWLAWYQQKPGKSPQLLIYGATSLADGVPSRFSGSRSGTQYSLKISRLQVEDIGIYYCQQASSVTYTFGAGTKLELK

Kd (Human VEGF-A 165): 0.011 nM | kon (Human VEGF-A 165): 2.4e+07 M⁻¹ s⁻¹
B12: BEW-10H2-B9 (antibody, IgG2b, V domains shown)
VH: QIQLVQSGPELKKPGESVKISCKASGYSFTNFGLYWVKQAPGQGLQYMGWIDTETGKPTYADDFRGRFVFFLETSASTAYLQINNLKNEDMATYFCARVYGYPSWYFDFWGPGTMVTVSS
VL: DIQMTQSPASLSTSLEEIVTITCQASQDIDNYLSWYQQKPGKSPQLLIHSATSLADGVPSRFSGSRSGTQFSLKIHRLQVEDTGIYYCLQHFFPPWTFGGGTKLELK

hPDGF-BB IC50 (nM), hPDGF-BB-induced NIH-3T3 cell proliferation [1]: < 10 nM
B13: hBDI-5H1.7 (antibody, V domains shown)
VH: EVTLKESGPALVKPTQTLTLTCTFSGFSLSTFGMGVGWIRQPPGKALEWLANIWWDDDKYYNPSLKNRLTISKDTSKNQAVLTITNMDPVDTATYYCARISTGISSYYVMDAWGQGTTVTVSS
VL: EIVLTQSPGTLSLSPGERATLSCERSSGDIGDTYVSWYQQKPGQAPRLLIYGNDQRPSGIPDRFSGSGSGTDFTLTISRLEPEDFAVYYCQSYDSDIDIVFGGGTKVEIK

hPDGF-BB IC50 (nM), hPDGF-BB-induced NIH-3T3 cell proliferation [1]: < 10 nM
B14: hBDI-5H1.8 (antibody, V domains shown)
VH: B13 VH
VL: B13 VL with I2F, L49V

hPDGF-BB IC50 (nM), hPDGF-BB-induced NIH-3T3 cell proliferation [1]: < 10 nM
B15: hBDI-5H1.13 (antibody, V domains shown)
VH: B13 VH
VL: DFQLTQSPSSLSASVGDRVTITCERSSGDIGDTYVSWYQQKPGKAPKNVIYGNDQRPSGVPSRFSGSGSGNSATLTISSLQPEDFATYFCQSYDSDIDIVFGQGTKVEIK

hPDGF-BB IC50 (nM), hPDGF-BB-induced NIH-3T3 cell proliferation [1]: < 10 nM
B16: hBDI-5H1.16 (antibody, V domains shown)
VH: B13 VH with A46G, K77N, N78S
VL: B13 VL with I2F, A45P, L48N, L49V, I60V, Y89F

hPDGF-BB IC50 (nM), hPDGF-BB-induced NIH-3T3 cell proliferation [1]: < 10 nM
B17: hBDI-5H1.17 (antibody, V domains shown)
VH: B13 VH with A46G, K77N, N78S
VL: B13 VL with I2F, T33S, L49V, G52A, N53D, S95I, D96N

Kd (Human VEGF-A 165): 0.012 nM | kon (Human VEGF-A 165): 6.9e+06 M⁻¹ s⁻¹
B18: BEW-6C2-C8 (antibody, IgG2b, V domains shown)
VH: EVQLVESGGGLVQPGSSLKLSCAASGFTFSYYGMHWIRQAPKKGLEWMALIYYDSSKMYYADSVKGRFTISRDNSKNTLYLEMNSLRSEDTAMYYCAAGGTAPVYWGQGVMVTVSS
VL: NIQLTQSPSLLSASVGDRVTLSCKGSQNIANYLAWYQQKLGEAPKLLIYNTDSLQTGIPSRFSGSGSGTDYTLTISSLQPEDVATYFCYQSNNGYTFGAGTKLELR

Kd (Human VEGF-A 165): 0.014 nM | kon (Human VEGF-A 165): 7e+06 M⁻¹ s⁻¹
B19: BEW-9D2-E8 (antibody, IgG2a, V domains shown)
VH: QIQLVQSGPELKKPGESVKISCKASGYTFTNYGMYWVKLAPGQGLQYLGWINTETGKPTYADDFKGRFVFFLETSASTAYLQINNLRNEDMATYFCARPSDYYDGFWFAYWGQGTLVTVSS
VL: DTVLTQSPALTVSPGERVSISCRASEWVNSYMHWYQQNPGQQPKLLIYKASNLASGVPARFSGSGSGTDFTLTLDPVEADDTATYFCQQSWNDPLTFGSGTKLEIK

Kd (Human VEGF-A 165): 0.0043 nM | kon (Human VEGF-A 165): 5.9e+06 M⁻¹ s⁻¹
B20: BEW-9E7-B4 (antibody, IgG2b, V domains shown)
VH: QIQLVQSGPELKKPGESVKISCKASGYTFTNYGMYWVKQAPGQGLQYMGWIDTETGKPTYADDFKGRFVFFLETSASTAYLQINNLRNEDMATYFCARWGYTSDYYYGWFPDWGQGTLVTVST
VL: B19 VL with T11A, W27G, T73N, L74I, D75H, S90N, D93V

Kd (Human VEGF-A 165): 0.01 nM | kon (Human VEGF-A 165): 1.4e+07 M⁻¹ s⁻¹
B21: BEW-1E3-D6 (antibody, IgG2b, V domains shown)
VH: QIQLVQSGPELKKPGESVKISCKASGYPFTNSGMYWVKQAPGQGLQYMGWINTEAGKPTYADDFKGRFVFFLETSASTAYLQINNLKNEDMATYFCARWGYISDNSYGWFDYWGQGTLVTVSS
VL: B19 VL with T11A, W27G, N29Y, L74I, Q88H, S90N

Kd (Human VEGF-A 165): 0.014 nM | kon (Human VEGF-A 165): 6.7e+06 M⁻¹ s⁻¹
B22: BEW-9E3-B9 (antibody, IgG2a, V domains shown)
VH: B19 VH with L39Q, L48M, Y80F, R87K, A109P, T115A
VL: B19 VL with V3I, T11A, V18I, W27G, L74I

Kd (Human VEGF-A 165): 0.14 nM | kon (Human VEGF-A 165): 1e+07 M⁻¹ s⁻¹
B23: BEW-3A1-D10-G9 (antibody, IgG2b, V domains shown)
VH: QVQLEQSGAELVKPGTSVKLSCMASGYTSSSNHMNWMKQTTGQGLEWIGIINPGSGGTRYNVKFEGKATLTVDKSSSTAFMQLNSLTPEDSAVYYCARAGFPGPFSYYAMGAWGQGTSVTVSS
VL: DIQMTQSPPVLSASVGDRVTLSCKASQNIHNNLDWYQQKHGEAPKLLIFYTNNLQTGIPSRFSGSGSGTDYTLTISSLQPEDVATYYCYQYNSGYTFGAGTKLELK
